In article doi:10.1101/2021.01.27.428466 (bioRxiv, 2021):

Biological target: T1, receptor-binding domain (RBD) of the spike protein of SARS-CoV-2 (SARS-CoV-2, UniProt P0DTC2)
T1 construct: also called re-engineered RBD
Assay: SEC
Conditions: both partners purified

B1: Sb16 (VHH)
VHH: QVQLVESGGGLVQAGGSLRLSCAASGFPVAYKTMWWYRQAPGKEREWVAAIESYGIKWTRYADSVKGRFTISRDNAKNTVYLQMNSLKPEDTAVYYCIVWVGAQYHGQGTQVTVSA
B1: binds.
